Data taken from patent US20230167165A1.

Biological target: monomeric human protein of therapeutic interest (antigen of Examples 1-7) (human)
Assay: competition flow cytometry; control scFv-Fc supernatant preincubated 15 min with 10 nM labeled antigen, then yeast displaying parental scFv added

- Q2 (% of cells displaying the parental scFv that bind antigen in presence of the competing scFv-Fc): 69.9%
Substance: unrelated scFv-Fc (control) (Fc fusion)
